According to patent publication US20200377595A1 (Chugai, published 2020):

T1: biotin-labeled cynomolgus monkey CD137 fused to human IgG1 Fc fragment (cynomolgus monkey; human, UniProt Q07011 24-186, limits assumed, biotin-labeled)
T1 construct: also called cyno CD137-Fc; not shown: human IgG1 Fc fragment
T1 chain: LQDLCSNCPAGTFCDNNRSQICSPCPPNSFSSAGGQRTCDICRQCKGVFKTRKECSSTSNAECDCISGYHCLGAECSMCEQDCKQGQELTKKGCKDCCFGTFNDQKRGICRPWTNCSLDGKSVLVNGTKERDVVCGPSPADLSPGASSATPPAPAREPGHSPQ


Biological target: T1, biotin-labeled cynomolgus monkey CD137 …
Test: ELISA, IgG

| Binder | binding result |
| --- | --- |
| dBBDu197 (antibody, IgG1, V domains shown, IgG1) VH: QVQLVESGGGLVQPGRSLRLSCAASGFTFSNAWMHWVRQAPGKGLEWVAQIKDRSNAYAAYYAPSVKGRFTISRDDSKNSIYLQMNSLKTEDTAVYYCHYVHYASASTVLPAFGVDAWGQGTTVTVSS VL: DIVMTQSPLSLPVTPGEPASISCRSSQSLVHSNRNTYLHWYQQKPGQAPRLLIYKVSNRFSGVPDRFSGSGSGTDFTLKISRVEAEDVGVYYCGQGTQVPYTFGQGTKLEIK | binds |
| dBBDu167 (antibody, IgG1, V domains shown, IgG1) VH: QVQLVESGGGLVQPGRSLRLSCAASGFTFSNAWMHWVRQAPGKGLEWVAQIKDKGNLYAAYYAPSVKGRFTISRDDSKNSIYLQMNSLKTEDTAVYYCHYVHYASAGGGLPGFGVDAWGQGTTVTVSS VL: DIVMTQSPLSLPVTPGEPASISCRSSQSLVHSNRNTYLHWYQQKPGQAPRLLIYKVSNRFSGVPDRFSGSGSGTDFTLKISRVEAEDVGVYYCGQGTQVPYTFGQGTKLEIK | binds |
| dBBDu173 (antibody, IgG1, V domains shown, IgG1) VH: QVQLVESGGGLVQPGRSLRLSCAASGFTFSNAWMHWVRQAPGKGLEWVAQIKDKGNLYAAYYAPSVKGRFTISRDDSKNSIYLQMNSLKTEDTAVYYCHYVHYASAGGGLSAYGVDAWGQGTTVTVSS VL: DIVMTQSPLSLPVTPGEPASISCRSSQSLVHSNRNTYLHWYQQKPGQAPRLLIYKVSNRFSGVPDRFSGSGSGTDFTLKISRVEAEDVGVYYCGQGTQVPYTFGQGTKLEIK | binds |
| dBBDu186 (antibody, IgG1, V domains shown, IgG1) VH: QVQLVESGGGLVQPGRSLRLSCAASGFTFSNAWMHWVRQAPGKGLEWVAQIKDRSNQYATYYAPSVKGRFTISRDDSKNSIYLQMNSLKTEDTAVYYCHYVHYAQASTVLPAFGVDAWGQGTTVTVSS VL: DIVMTQSPLSLPVTPGEPASISCRSSQSLVHSNRNTYLHWYQQKPGQAPRLLIYKVSNRFSGVPDRFSGSGSGTDFTLKISRVEAEDVGVYYCGQGTQVPYTFGQGTKLEIK | binds |
| dBBDu189 (antibody, IgG1, V domains shown, IgG1) VH: QVQLVESGGGLVQPGRSLRLSCAASGFTFSNAWMHWVRQAPGKGLEWIAQIKDRSNQYATYYAPSVKGRFTISRDDSKNSIYLQMNSLKTEDTAVYYCHYVHYAQASSLLPSFGVDAWGQGTTVTVSS VL: DIVMTQSPLSLPVTPGEPASISCRSSQSLVHSNRNTYLHWYQQKPGQAPRLLIYKVSNRFSGVPDRFSGSGSGTDFTLKISRVEAEDVGVYYCGQGTQVPYTFGQGTKLEIK | binds |
| dBBDu193 (antibody, IgG1, V domains shown, IgG1) VH: QVQLVESGGGLVQPGRSLRLSCAASGFTFSNAWMHWVRQAPGKGLEWVAQIKDRSNQYATYYAPSVKGRFTISRDDSKNSIYLQMNSLKTEDTAVYYCHYVHYSAASTLLPSFGVDAWGQGTTVTVSS VL: DIVMTQSPLSLPVTPGEPASISCRSSQSLVHSNRNTYLHWYQQKPGQAPRLLIYKVSNRFSGVPDRFSGSGSGTDFTLKISRVEAEDVGVYYCGQGTQVPYTFGQGTKLEIK | binds |
| dBBDu196 (antibody, IgG1, V domains shown, IgG1) VH: QVQLVESGGGLVQPGRSLRLSCAASGFTFSNAWMHWVRQAPGKGLEWVAQIKDRGNAYNAYYAESVKGRFTISRDDSKNSIYLQMNSLKTEDTAVYYCHYVHYASASTVLPAFGVDAWGQGTTVTVSS VL: DIVMTQSPLSLPVTPGEPASISCRSSQSLVHSNRNTYLHWYQQKPGQAPRLLIYKVSNRFSGVPDRFSGSGSGTDFTLKISRVEAEDVGVYYCGQGTQVPYTFGQGTKLEIK | binds |
| dBBDu199 (antibody, IgG1, V domains shown, IgG1) VH: QVQLVESGGGLVQPGRSLRLSCAASGFTFSNAWMHWVRQAPGKGLEWVAQIKDKQSGYNTYYAPSVKGRFTISRDDSKNSIYLQMNSLKTEDTAVYYCHYVHYASASTVLPAFGVDAWGQGTTVTVSS VL: DIVMTQSPLSLPVTPGEPASISCRSSQSLVHSNRNTYLHWYQQKPGQAPRLLIYKVSNRFSGVPDRFSGSGSGTDFTLKISRVEAEDVGVYYCGQGTQVPYTFGQGTKLEIK | binds |
| dBBDu202 (antibody, IgG1, V domains shown, IgG1) VH: QVQLVESGGGLVQPGRSLRLSCAASGFTFSNAWMHWVRQAPGKGLEWVAQIKDKGNAYAAYYAPSVKGRFTISRDDSKNSIYLQMNSLKTEDTAVYYCHYVHYSAASTVLPAFGVDAWGQGTTVTVSS VL: DIVMTQSPLSLPVTPGEPASISCRSSQSLVHSNRNTYLHWYQQKPGQAPRLLIYKVSNRFSGVPDRFSGSGSGTDFTLKISRVEAEDVGVYYCGQGTQVPYTFGQGTKLEIK | binds |
| dBBDu204 (antibody, IgG1, V domains shown, IgG1) VH: QVQLVESGGGLVQPGRSLRLSCAASGFTFSNAWMHWVRQAPGKGLEWVAQIKDRSNNYATYYAESVKGRFTISRDDSKNSIYLQMNSLKTEDTAVYYCHYVHYASASTVLPAFGVDAWGQGTTVTVSS VL: DIVMTQSPLSLPVTPGEPASISCRSSQSLVHSNRNTYLHWYQQKPGQAPRLLIYKVSNRFSGVPDRFSGSGSGTDFTLKISRVEAEDVGVYYCGQGTQVPYTFGQGTKLEIK | binds |
| dBBDu205 (antibody, IgG1, V domains shown, IgG1) VH: QVQLVESGGGLVQPGRSLRLSCAASGFTFSNAWMHWVRQAPGKGLEWVAQIKDRSQLYAAYYAPSVKGRFTISRDDSKNSIYLQMNSLKTEDTAVYYCHYVHYASASTVLPAFGVDAWGQGTTVTVSS VL: DIVMTQSPLSLPVTPGEPASISCRSSQSLVHSNRNTYLHWYQQKPGQAPRLLIYKVSNRFSGVPDRFSGSGSGTDFTLKISRVEAEDVGVYYCGQGTQVPYTFGQGTKLEIK | binds |
| dBBDu222 (antibody, IgG1, V domains shown, IgG1) VH: QVQLVESGGGLVQPGRSLRLSCAASGFTISSAWMHWVRQAPGKGLEWVAQIKDRANGYAAYYAPSVKGRFTISRDDSKNSIYLQMNSLKTEDTAVYYCRYVHYATAYDGFYGFGVDAWGQGTTVTVSS VL: DIVMTQSPLSLPVTPGEPASISCRSSQSLVHSNRNTYLHWYQQKPGQAPRLLIYKVSNRFSGVPDRFSGSGSGTDFTLKISRVEAEDVGVYYCGQGTQVPYTFGQGTKLEIK | binds |
| dBBDu139 (antibody, IgG1, V domains shown, IgG1) VH: QVQLVESGGGLVQPGRSLRLSCAASGFTFSNAWMHWVRQAPGKGLEWVAQIKDRGNAYNAYYAESVKGRFTISRDDSKNSIYLQMNSLKTEDTAVYYCRFVHYRHPLLHIQYGVDAWGQGTTVTVSS VL: DIVMTQSPLSLPVTPGEPASISCRSSQSLVHSNRNTYLHWYQQKPGQAPRLLIYKVSNRFSGVPDRFSGSGSGTDFTLKISRVEAEDVGVYYCGQGTQVPYTFGQGTKLEIK | binds |
| dBBDu179 (antibody, IgG1, V domains shown, IgG1) VH: QVQLVESGGGLVQPGRSLRLSCAASGFTFSNAWMHWVRQAPGKGLEWVAQIKDRSNQYATYYAPSVKGRFTISRDDSKNSIYLQMNSLKTEDTAVYYCHYVHYASASTVLPAFGVDAWGQGTTVTVSS VL: DIVMTQSPLSLPVTPGEPASISCRSSQSLVHSNRNTYLHWYQQKPGQAPRLLIYKVSNRFSGVPDRFSGSGSGTDFTLKISRVEAEDVGVYYCGQGTQVPYTFGQGTKLEIK | binds |
| dBBDu183 (antibody, IgG1, V domains shown, IgG1) VH: QVQLVESGGGLVQPGRSLRLSCAASGFTFSNAWMHWVRQAPGKGLEWVAQIKDKGNAYAAYYAPSVKGRFTISRDDSKNSIYLQMNSLKTEDTAVYYCHYVHYASASTVLPAFGVDAWGQGTTVTVSS VL: DIVMTQSPLSLPVTPGEPASISCRSSQSLVHSNRNTYLHWYQQKPGQAPRLLIYKVSNRFSGVPDRFSGSGSGTDFTLKISRVEAEDVGVYYCGQGTQVPYTFGQGTKLEIK | binds |
